The record followed here is the supplement of paper PMC11246515.

± gives the standard deviation of the averaged measurements.

The series is described as follows: total protein half-life in vivo (active degradation + dilution); higher = more stable protein.
Where [1] appears, read: E. coli NCM3722 delta-clpP delta-lon delta-hslV, growth: N-lim chemostat, doubling time 6 h.
Where [2] appears, read: E. coli NCM3722 delta-hslV, growth: N-lim chemostat, doubling time 6 h.
Setting [3] is: E. coli NCM3722 delta-smpB, growth: N-lim chemostat, doubling time 6 h.
Where [4] appears, read: wild type E. coli NCM3722, growth: C-lim chemostat, doubling time 3 h.
Setting [5] is: wild type E. coli NCM3722, growth: C-lim chemostat, doubling time 6 h.
Where [6] appears, read: wild type E. coli NCM3722, growth: C-lim chemostat, doubling time 12 h.
Setting [7] is: wild type E. coli NCM3722, growth: N-lim chemostat, doubling time 6 h.
The mark [8] stands for this setting: wild type E. coli NCM3722, growth: N-lim chemostat, doubling time 12 h.
Setting [9] is: wild type E. coli NCM3722, growth: P-lim chemostat, doubling time 6 h.
Where [10] appears, read: wild type E. coli NCM3722, growth: P-lim chemostat, doubling time 12 h.
[11] abbreviates: E. coli NCM3722 delta-clpP, growth: N-lim chemostat, doubling time 6 h.
Where [12] appears, read: E. coli NCM3722 delta-lon, growth: N-lim chemostat, doubling time 6 h.

For “MSQPLNADQELVSDVVACQLVIKQILDVLDVIAPVEVREKMSSQLKNIDFTNHPAAADPVTMRAIQKAIALIELKFTPQGESH [P0AD10]”, the “total protein half-life in vivo” value was 5.83 ± 0.39 h under setting [1]; 5.15 h under setting [2]; 3.91 ± 0.9 h under setting [3]; 3.21 h under setting [4]; 4.53 ± 0.82 h under setting [5]; 8.31 ± 0.17 h under setting [6]. Further, the “total protein half-life in vivo” value by setting is: under setting [7], 3.32 h; under setting [8], 6.2 h; under setting [9], 4.76 ± 1.4 h; under setting [10], 10.3 ± 0.33 h.
Regarding “MEHISTTTLIIILIIMVVISAYFSGSETGMMTLNRYRLRHMAKQGNRSAKRVEKLLRKPDRLISLVLIGNNLVNILASALGTIVGMRLYGDAGVAIATGVLTFVVLVFAEVLPKTIAALYPEKVAYPSSFLLAPLQILMMPLVWLLNAITRMLMRMMGIKTDIVVSGSLSKEELRTIVHESRSQISRRNQDMLLSVLDLEKMTVDDIMVPRSEIIGIDINDDWKSILRQLSHSPHGRIVLYRDSLDDAISMLRVREAWRLMSEKKEFTKETMLRAADEIYFVPEGTPLSTQLVKFQRNKKKVGLVVNEYGDIQGLVTVEDILEEIVGDFTTSMSPTLAEEVTPQNDGSVIIDGTANVREINKAFNWHLPEDDARTVNGVILEALEEIPVAGTRVRIGEYDIDILDVQDNMIKQVKVFPVKPLRESVAE”, the “total protein half-life in vivo” value was determined as 6.45 ± 0.94 h under setting [1]; 6.26 ± 0.14 h under setting [11]; 6.04 ± 0.47 h under setting [2]; 5.75 ± 0.47 h under setting [3]; 3.02 ± 0.34 h under setting [4]; 6.47 ± 1.1 h under setting [5]. In addition, the “total protein half-life in vivo” value stood at 9.51 ± 2.4 h under setting [6]; 6.56 ± 0.41 h under setting [7]; 11.6 ± 1 h under setting [8]; 6 ± 0.074 h under setting [9]; 10.9 ± 1 h under setting [10].
Turning to “MNTTLFRWPVRVYYEDTDAGGVVYHASYVAFYERARTEMLRHHHFSQQALMAERVAFVVRKMTVEYYAPARLDDMLEIQTEITSMRGTSLVFTQRIVNAENTLLNEAEVLVVCVDPLKMKPRALPKSIVAEFKQ [P0A8Z3]”, the “total protein half-life in vivo” value by setting is: under setting [1], 5.87 ± 0.51 h; under setting [11], 6.54 ± 0.91 h; under setting [2], 6.41 ± 0.61 h; under setting [12], 6.27 ± 0.26 h; under setting [3], 5.7 ± 0.13 h; under setting [5], 5.99 ± 0.073 h. The “total protein half-life in vivo” value is, setting by setting: under setting [6], 11.1 ± 2.1 h; under setting [7], 5.28 ± 0.094 h; under setting [8], 12.3 ± 2.7 h; under setting [9], 5.68 ± 0.45 h; under setting [10], 12.63 ± 0.092 h.
With “MTELAQLQASAEQAAALLKAMSHPKRLLILCMLSGSPGTSAGELTRITGLSASATSQHLARMRDEGLIDSQRDAQRILYSIKNEAVNAIIATLKNVYCP”, the “total protein half-life in vivo” value under setting [10] came out at 9.02 h.
Consider “MITHFRQAIEETLPWLSSFGADPAGGMTRLLYSPEWLETQQQFKKRMAASGLETRFDEVGNLYGRLNGTEYPQEVVLSGSHIDTVVNGGNLDGQFGALAAWLAIDWLKTQYGAPLRTVEVVAMAEEEGSRFPYVFWGSKNIFGLANPDDVRNICDAKGNSFVDAMKACGFTLPNAPLTPRQDIKAFVELHIEQGCVLESNGQSIGVVNAIVGQRRYTVTLNGESNHAGTTPMGYRRDTVYAFSRICHQSVEKAKRMGDPLVLTFGKVEPRPNTVNVVPGKTTFTIDCRHTDAAVLRDFTQQLENDMRAICDEMDIGIDIDLWMDEEPVPMNKELVATLTELCEREKLNYRVMHSGAGHDAQIFAPRVPTCMIFIPSINGISHNPAERTNITDLAEGVKTLALMLYQLAWQK”, for which the “total protein half-life in vivo” value by setting is: under setting [3], 2.26 ± 0.15 h; under setting [4], 2.76 ± 0.21 h; under setting [5], 3.86 ± 0.11 h; under setting [6], 7.08 ± 1.6 h; under setting [8], 3.88 h; under setting [9], 3.54 h. Also, the “total protein half-life in vivo” value under setting [10] came to 6.32 h.
On to “MLQIVGALILLIAGFAILRLLFRALISTASALAGLILLCLFGPALLAGYITERITRLFHIRWLAGVFLTIAGMIISFMWGLDGKHIALEAHTFDSVKFILTTALAGGLLAVPLQIKNIQQNGITPEDISKEINGYYCCFYTAFFLMACSACAPLIALQYDISPSLMWWGGLLYWLAALVTLLWAASQIQALKKLTCAISQTLEEQPVLNSKSWLTSLQNDYSLPDSLTERIWLTLISQRISRGELREFELADGNWLLNNAWYERNMAGFNEQLKENLSFTPDELKTLFRNRLNLSPEANDDFLDRCLDGGDWYPFSEGRRFVSFHHVDELRICASCGLTEVHHAPENHKPDPEWYCSSLCRETETLCQEIYERPYNSFISDATANGLILMKLPETWSTNEKMFASGGQGHGFAAERGNHIVDRVRLKNARILGDNNARNGADRLVSGTEIQTKYCSTAARSVGAAFDGQNGQYRYMGNNGPMQLEVPRDQYAGAVETMRNKIREGKVEER”, for which the “total protein half-life in vivo” value under setting [11] was 0.668 h, the “total protein half-life in vivo” value under setting [8] was found to be 0.674 h and the “total protein half-life in vivo” value under setting [10] came out at 2.58 ± 0.79 h.
Take “MPTSHENALQQRCQQIVTSPVLSPEQKRHFLALEAENNLPYPQLPAEARRALDEGVICDMFEGHAPYKPRYVLPDYARFLANGSEWLELEGAKDLDDALSLLTILYHHVPSVTSMPVYLGQLDALLQPYVRILTQDEIDVRIKRFWRYLDRTLPDAFMHANIGPSDSPITRAILRADAELKQVSPNLTFIYDPEITPDDLLLEVAKNICECSKPHIANGPVHDKIFTKGGYGIVSCYNSLPLAGGGSTLVRLNLKAIAERSESLDDFFTRTLPHYCQQQIAIIDARCEFLYQQSHFFENSFLVKEGLINPERFVPMFGMYGLAEAVNLLCEKEGIAARYGKEAAANEVGYRISAQLAEFVANTPVKYGWQKRAMLHAQSGISSDIGTTPGARLPYGDEPDPITHLQTVAPHHAYYYSGISDILTLDETIKRNPQALVQLCLGAFKAGMREFTANVSGNDLVRVTGYMVRLSDLEKYRAEGSRTNTTWLGEEAARNTRILERQPRVISHEQQMRFSQ”: the “total protein half-life in vivo” value came out at 4.57 h under setting [1]; 3.47 h under setting [12]; 2.7 h under setting [4]; 3.94 h under setting [5]; 6.17 h under setting [6]; 3.51 h under setting [9]. The “total protein half-life in vivo” value under setting [10] was 5.66 h.
